Results published in article PMC10200313 (ACS chemical biology, 2022).

Target: T1, 6E peptide (14-mer peptide derived from UBC6e, with N-terminal triglycine motif) (Homo sapiens, UniProt Q9Y385)
T1 chain: QADQEAKELARQIS
Test: SPR

binding result: binds
B1: Nb6E labeled with biotin (Nb6E-biotin) (VHH)
VHH: QVQLQESGGGLVQPGGSLRLSCAASGFVFENSAMAWYRQAPGKERELIAVIGTTFIKLAESVKGRFTISRDNAKSTVYLQMNNLKPEDTAVYYCSKSGAYWGQGTQVTVSS
